The target in assay [1] is T1, GALR2 (Homo sapiens, UniProt O43603).
T1 sequence (O43603 1-387): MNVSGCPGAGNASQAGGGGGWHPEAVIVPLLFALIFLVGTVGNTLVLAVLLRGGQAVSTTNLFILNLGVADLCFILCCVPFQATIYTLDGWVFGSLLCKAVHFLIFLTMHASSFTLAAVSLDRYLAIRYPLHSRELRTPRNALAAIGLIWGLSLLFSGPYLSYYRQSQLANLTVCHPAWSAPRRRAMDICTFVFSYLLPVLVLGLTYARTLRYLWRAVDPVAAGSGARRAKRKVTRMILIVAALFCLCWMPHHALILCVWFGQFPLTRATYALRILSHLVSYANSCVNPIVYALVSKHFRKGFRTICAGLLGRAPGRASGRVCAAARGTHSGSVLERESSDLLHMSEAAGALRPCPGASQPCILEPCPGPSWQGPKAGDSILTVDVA
Kind of assay: Calcium assay, CHO GalR2 cells (FLIPR). The settings on record: mean +/− standard deviation; for GalR2 Calcium, mean pEC50: Table 2, n ≥ 3; for GalR2 activity (calcium assay), warhead length: Table 6.
Description: CHO GalR2 cells were plated at 10,000 cells per well in black clear bottom plates (corning, USA) and incubated overnight at 37° C. with 5% CO2. […] Ligands were prepared at a 5× concentration and added to cells using the FLIPR (Molecular Devices, USA). Baseline was typically 20 seconds before ligand addition. […] For analysis, fluorescence was normalised to pre-addition baseline and peak fluorescence used for all quantification.
In brief, a panel of functional cell-based microtiter-plate assays were developed using recombinant GalR1 and GalR2 receptors stably expressed in CHO cells. […] Nominally this equated to 10 serial (~3fold) dilutions with highest concentrations of 10-1 μM as appropriate.
In addition to generating both potency and efficacy estimates, the latter being expressed relative to native galanin, both G-protein and non-G-Protein signalling pathways were measured.

The target in another assay is T2, GALR3 (Homo sapiens, UniProt O60755).
T2 construct: expressed in transfected cells; host or cells: genetically modified HEK293 Gqi cells, transient
T2 sequence (O60755 1-368): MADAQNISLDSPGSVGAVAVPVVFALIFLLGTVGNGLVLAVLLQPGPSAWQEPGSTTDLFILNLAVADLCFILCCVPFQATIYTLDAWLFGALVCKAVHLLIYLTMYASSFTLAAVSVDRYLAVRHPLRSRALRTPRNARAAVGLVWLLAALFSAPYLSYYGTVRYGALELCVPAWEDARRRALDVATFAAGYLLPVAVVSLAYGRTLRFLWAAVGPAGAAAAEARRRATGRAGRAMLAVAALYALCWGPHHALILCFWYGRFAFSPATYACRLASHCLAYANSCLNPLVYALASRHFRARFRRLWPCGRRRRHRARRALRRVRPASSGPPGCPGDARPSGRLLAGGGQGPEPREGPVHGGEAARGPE
Put plainly: Luciferase reporter gene assay (SRE), HEK293 Gqi cells. Format: cell-based. For orientation: In a reporter assay the amount or activity of a reporter protein is the signal.

Assay [2] deals with T1, GALR2. Kind of assay: β-arrestin recruitment, PathHunter CHO-K1 GALR2 cells. The settings on record: Table 2; mean +/− standard deviation, n ≥ 3. It is filed as cell-based. On the procedure: Ligands were prepared at half log dilutions using cell plating reagent 2. 5 μl of each ligand was added to cells and plates incubated at 37° C. for 90 minutes. DiscoverX PathHunter detection kit (DiscoverX, USA) was added to cells as described my manufacturer's guidelines and plates incubated for 60 minutes at room temperature in the dark. Chemiluminescent signal was measured using the PHERAstar FS (BMG, Germany).
For orientation: Arrestin recruitment assays detect the binding of arrestin to an activated receptor.

The target of a further assay is T3, mouse GalR2 (Mus musculus, UniProt O88854).
T3 sequence (O88854 1-371): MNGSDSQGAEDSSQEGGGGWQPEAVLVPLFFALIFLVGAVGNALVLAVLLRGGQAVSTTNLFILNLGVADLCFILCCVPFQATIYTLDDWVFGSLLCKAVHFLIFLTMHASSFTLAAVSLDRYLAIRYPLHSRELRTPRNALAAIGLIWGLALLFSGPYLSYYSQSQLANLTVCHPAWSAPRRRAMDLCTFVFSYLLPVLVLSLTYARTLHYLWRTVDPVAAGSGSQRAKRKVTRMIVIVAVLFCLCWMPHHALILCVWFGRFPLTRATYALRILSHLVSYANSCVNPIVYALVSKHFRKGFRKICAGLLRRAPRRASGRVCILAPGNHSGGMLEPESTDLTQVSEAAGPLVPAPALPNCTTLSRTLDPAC
Put plainly: Calcium assay at orthologue receptor. It is filed as cell-based. As to conditions: Table 8; Calcium assays; mean +/− standard deviation. An excerpt:
(§1) These species were chosen as they represent potential downstream in vivo models to be used. Within native galanin amino acid residues 1-15 are conserved across species, we would therefore expect the Gal FC fusions comprising amino acids 2 to 13 to retain GalR2 activity in these species. Calcium imaging was used to define receptor activity.

Another assay concerns the target cynomolgus GalR2. Kind of assay: Calcium assay at orthologue receptor. Format: cell-based, Macaca fascicularis. As to conditions: Table 8; Calcium assays; mean +/− standard deviation.
Description: as §1

Where [3] appears, read: highest concentration tested 10 μM.

Description for GALR3: GalR3 activity was measured, alongside GalR1 and GalR2, using a luciferase reporter assay. A reporter plasmid and a receptor plasmid, were transiently transfected into the target cell line. The reporter plasmid contains a serum response element (SRE) or a nuclear factor of activated T-cells response element (NFAT-RE) which is coupled to a luciferase transcript and induces expression of the luciferase upon a specific G-protein (Gai uses SRE; Gaq uses NFAT-RE) activation. The target receptor is constantly expressed after cell transfection. For GALR1 and GALR3 screening, genetically modified HEK293 Gqi cells were transiently transfected with the SRE reporter and the receptor (GALR1 and GALR3) plasmids. For GALR2 screening, HEK293 cells were transiently transfected with the NFAT-RE reporter and the receptor (GALR2) plasmid. […] The luciferase activity was analyzed with the Bright-Glo Luciferase Assay (Promega) in an EnSpire plate reader.
Therefore, to measure activity at the GalR3 receptor a reporter gene assay was used. In this system MAP/ERK signalling is used to measure receptor activity. Activation of Gqi coupled receptors leads to downstream activation of ERK1/2. The activated ERK translocates to the nucleus where it phosphorylates and activates transcription factors, which lead to the binding of Serum response element (SRE). In this assay SRE activation induces expression of a luciferase reporter gene. […] To ensure this effect was not an artifact of the reporter gene assay, GalR1 and GalR2 reporter assays (using SRE and NFAT-RE respectively) were also run.

As to “Gal2-13FC: galanin 2-13, AEAAAKEAAAKA linker, human IgG1 FC; SEQ ID NO: 7”, in the assay with GALR2 [1], the “GalR2 Calcium, mean pEC50” value was 6.3 +/− 0.3. For the same substance, the “GalR2 activity (calcium assay), warhead length” value in the assay with GALR2 [1] (setting [3]) is listed as 6.4 +/− 0.1. In addition, the “GalR2 activity (calcium assay), linker variants” value in the assay with GALR2 [1] (Table 7, highest concentration tested 10 μM) is given as 6.4 +/− 0.1. In addition, the “activity at GalR3 (in words)” value with GALR3 is on record as “no measurable activity”. Besides, the “GalR2 Beta Arrestin, mean pEC50” value with GALR2 [2] is given as 6.7 +/− 0.2. Also, in the assay with mouse GalR2, the “Mouse GalR2 activity” value is recorded as 6.4 +/− 0.3. Further, the “Cynomolgus GalR2 activity” value on cynomolgus GalR2 is given as 7.7 +/− 0.4.
Consider “Gal2-30FC: galanin 2-30, AEAAAKEAAAKA linker, human IgG1 FC; SEQ ID NO: 28”, for which, in the assay with GALR2 [1], the “GalR2 Calcium, mean pEC50” value is given as 6.6 +/− 0.3. The “GalR2 activity (calcium assay), warhead length” value in the assay with GALR2 [1] (setting [3]) is 6.8 +/− 0.1. The “activity at GalR3 (in words)” value in the assay with GALR3 is given as “no measurable activity”. Further, the “GalR2 Beta Arrestin, mean pEC50” value in the assay with GALR2 [2] was 7.3 +/− 0.2. Further, the “Mouse GalR2 activity” value in the assay with mouse GalR2 is 7.0 +/− 0.1. Also, the “Cynomolgus GalR2 activity” value on cynomolgus GalR2 is on record as 8.4 +/− 0.1.

Values taken from patent US20260209301A1, “Galanin-2 Receptor Agonists” (LIFEARC, priority 2022, published 2026).
